From the nanobody polyreactivity screen of Harvey et al. (2022)

Test: yeast display, Sf9 membrane polyspecificity reagent, FACS + sequencing; frameworks hold sequencing errors
How it was run: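 Synthetic nanobody libraries on Saccharomyces cerevisiae BJ5465 were galactose-induced for 36–48 hours, stained 1 hour at 4 °C with 10% biotinylated, detergent-solubilized Sf9 membrane reagent and enriched on streptavidin microbeads. FACS then separated cells into low and high (top ~1%) gates by anti-HA (expression) and streptavidin (reagent binding) fluorescence. Genes were colony-PCR amplified, MiSeq 2 × 250 sequenced and CDR-length filtered. A clone's polyreactivity label is that of its gate of origin.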

Row | Sequence | polyreactivity (PSR sort gate)
1 | QVQLLESGGGLVQAGGSLRLSCAASGRTLDRNAMGWYRQAPGKERELVAAISRRTGSTYYADSVKGRFTISRDNAKNTVYLQMNSLKPEDTAVYYCNKVTYGDFDYWGQGTQVTVSS | high polyreactivity
2 | QVQLVESGGRLVQAGGSLRLSCAASGSIFFSNAMGWYRQAPGKERELVAAITSTGGSTYYADSVKGRFTISRDNAKNTVYLQMNSLKPEDTAVYYCAAASRRGYYYWGQGTQVTVSS | high polyreactivity
3 | QVQLVESGGGLVQAGGSLRLSCAASGSIFQSNAMGWYRQAPGKERELFAAISWNTGSTYADSVKGRFTISRDNAKNTVYLQMNSLKPEDTAVYYCAADRSHAYYRKNRVDYWGQGTQVTVSS | low polyreactivity
4 | QVQHVESGGGLVQAGGSLRLSCAASGSNVVSNAMGWYRHATGKEREFVATISSGGGTTYADSVKGRFTISRDNAKITVYLQMNSLKAEDTAVYYCAAGHFVGREWVKFDYWGQGTQVTVSS | low polyreactivity
5 | QVQLVESGGALVQAGVSLRLSCAASGSIFRFYAMGWNKQAPGKERELVAAITSGGSTNYADSVKGRFTISRDNEKNTVYLQMNSLKPEDTAVFYCAAELVFFFIFDYWGQGTQVTVSS | low polyreactivity
6 | QDQHVESGGGLVQAGGSLRLSCAASGIIFTRNAMGWYRQAPGKERELVAVISWGGRTYYADSVKGRFTISRDNAKNTVYLQMNSLKPEDTAVYYCNARAPYPVGGRKGDYWGQGTQVTVSS | high polyreactivity
7 | QVQLVESGGGLVQAGGSLRLSCAASGFTFDYYAMGWYRQAPGKERELVAAISRAGSTNYADSVKGRFTISRDNAKNTVYLQMNSLKPEDTAVYYCNKGYHSWSRLSQFGWSYDYWGQGTQVTVSS | high polyreactivity
8 | QVQLVESGGGLVQAGVSLRLSCAASGRIFFPNGMGCYRQAPGKESELVATISRIGGSTYYADSVKGRFTISRDNAKNTVYLQMNSLKPEDTAVYYFAAQYSYGVYWTLPYGYNYWGQGTQVTVSS | low polyreactivity
9 | QVQLVESGGGLVQAGGSLRLSCAASGRTFGTNTKGWSRQAPGKERELVAAISSRGGTTYYADSVKGRFTISRDNAKNTVYLQMYSLKPEDTAVYYCNRARSSSRYDYWGQGTQVTVSS | low polyreactivity
10 | QVQLVESGGGLVQAGGSLRLSCAASGSIFRRNAMGWYRQAPGKERELVAAINSGGTTYYADSVKGRFTNSRDNAKNTVYLQMNSLKPEVTAVYYCATVYRGWYYYWGQGTQVTVSS | high polyreactivity
11 | QVQLVESGGGLVQAGGRLRLSCGASGIIFVYYTMGWDRQAPGKERELVAAITSGGSTYYADSVKGRFTISRDNAKNTVFLQINSLKPEDTAVYYCAAVGRPPYAGDRGFRGQGTQVTVSS | high polyreactivity
12 | QVQLVESGGGLVQAGGSLRLSCAASGRIFAVNAMGWYRQAPGKERELVASIRWSGGSTYYADSVKGRFTISRDNAKNTVYLQMNTLKPEDTAVYYCNKVRGKTYYGEGDYWGQGTQVTVSS | high polyreactivity
13 | QVQLVESGGALVQAGGSLRLSCAASGLTFTDYAMGWYRPAPGQERELVAGIWDGGSTYYADSVKGRFTISRDNAKNTVYLQMNSLKPEDTAVYYCAAEDWWTSFPEYYYWGQGTQVTVSS | high polyreactivity
14 | QVHLVESGRGLVQAGGSLRLSCAASGSTFKIYAMGWYRPAPAKERELVAAITRGGSTNYADSVKGRFTISRDTAKKTVYLQMNSLKPEDTAVYSFAASYWYRRYGTYSYDYWGHGTQVTVSS | high polyreactivity
15 | QVQLVESGGGLVQAGGSLRLICAASGLTFVYYTKRSYTQAPGKEREFVAGINSGGSTYYADSVKGRFTISRDNAKNTVYVQMNSLKPVDTAVYYCAAVERGYRRFRRIYDYWGQGTQVTVSS | high polyreactivity
16 | QLQLVESGGVLVQAGGSLRLSCAASGSTFRYNAMGWYRQAPGKERELVASITWSGGDTYYADSVKGRFTISRDNAKNTVYLQMNSLKPEDTAVYYCAKKGYASRYFIYDYWGQGTQVTVSS | low polyreactivity

Row | Sequence | polyreactivity (PSR sort gate)
17 | QVQLVESGGGLVQAGGSLRLSCAASGRITQYTMGWYRQAPGKERELVASIRKSGSTHYADSVKGRFTISRDNAKNTVYLQMNSLKPEDTAVYYCAARTYNPLTGYGYWGQGTQVTVSS | high polyreactivity
18 | QVQLVESGVGLVQAGGSLRLSCAASGSIFQDNAMGWYRQAPGKERELVAAISSGDSTYYADSVKGRFTISRDNAKNTVYLQMNSLKPEDTAVYYCAKVPSRWSRQDKAQFDYWGQGTQVTVSS | low polyreactivity
19 | QVQLVESGGRLVQAGGSLRLSCAASGSTFHDYAMGWYTPAPGKERELVAAIYNSGGSTYYADSVKGRFSISLDNAQNTVYLQMNRLKPEDSAVYYWAADVSWYWYYEYWGQGTQVTLSS | low polyreactivity
20 | QVQLVESGGGLDQAGGSLRLSCAASGNIFPAYAMGWYRQAPGKERELVAAISKSGGRTYYADSVKGRFTISRDNAKKTVYLVMNSLKPEDSAVYFCAARDRRYQWTSWYDYWGQGTQVTVSS | high polyreactivity
21 | QVQLVESGGGLVQAGGSLRLSCDASGSIFSKYAMGWYRQAPGKERELVAAISWSGTSTYYADSVKGRFTISRDNAKNTVYLQMNSLKPEDTAVYYCAASSPRSLSLLGYWGQGTQVTVSS | low polyreactivity
22 | QVQLQESGRRPGAAGGSPRMSCAASGNIFWVAVMGRYRQAPGKERELVASIGFGCTTYYADSVKCRFTISRDNAKNTVFLQLISLKPEDTAVYYCAAPLYDWGELDDWGQGTQVPVSS | low polyreactivity
23 | QVQLVESGGGLVQAGASLRLSCAASGCTFVVNAMGWYRQAPGKERELVAAITDGSSTNYADSVKGRFTISRDNAKYTVYLQMTRLIRQDTAVYFCAAVPYIDLDDINVEHPQYGYWGQGTQVTVSS | low polyreactivity
24 | QVQLVESGGVVVQAGGSLRLSCAASGFTIDYYAMGWYRQARGQERELVATINGASYTNYADSVKGRFTISRDNAKNTVYLQMNSLKPEDTAVYYCNARYYGPDFVLAYDYWGQGTQVTVSS | low polyreactivity
25 | QVQLVESGGGLVQAGGSLRLSCAASGFTFRSYAMGWYRQAPGKERELVAVISSSGGSTYYADSVKGRFTISRDNAKNTVYLQMNSLKPEDTAVYYCNRRPATRAYLYDYWGQGTQVTVSS | high polyreactivity
26 | QVQLVESGGGLVQAGGRLRLSCAASGRIYTAYYAMGWYIQAPGKERELVASISSSGTSTYADSVKGRFTISRDNAKNTVYLQMNSLKPEDTAVYYCATRKLRTRRYDYGYWGQGTQVTVSS | low polyreactivity
27 | QVQLVESGGGLVQAGGSLRLSCAASGRIFYTYAMGWYRQAPGKERELVAAITYRGGSTYYADSVKGRFTISRDNAKNTVYLQMNSLKPEDTAVYYCATQLWDRYGFGYWGQGTQVTVSS | high polyreactivity
28 | QVQLVESGGGLVQAGGSLRLSCAASGSIFWFNAMGWYRQAPGKERELVAAINSSGGRTYYADSVKGRFTISRDNAKNTVYLQMNSLKPEDTAVYYCNALLWGNPASYGYWGQGTQVTVSS | high polyreactivity
29 | QVQLVESGGGLVQAGGSLRLSCAASGFTFRYYAMGWYRQAPGKERELVAAITNVGSTNYADSVKGRFTMSRDNAKHTVYLQMNSLKPEDTAVYYCNARDYYSYDYWGQGTQVTVST | high polyreactivity
30 | QVQLVESGGGLVQAGGSLRLSCAASGITFDYYAMGWYRQAPGKERELVAAISRSGGSTYYADSVKGRFTISRDKAKNTVYLQMNSLKPEDTAVYYCAAYALTIRAYYYWGQGTQVTVSS | high polyreactivity
31 | QDQLVESGGGLVQAGGSLRLSCAASGPIFLVKTMGCYIQAPGKERELVADITWRGGDTYYADSVKGRFTISRDNAKNTDYLQMNSLKPEDTAVYYCAARGLGYGYERYRLGYWGQGTQVTVSS | high polyreactivity
32 | QVQLVESGGGLVQAGGSLRLSCAASGFILYGNAMGLYRQAPGKERELVAAISRRGGSTYYADSVKGRFTISRDNAKNTVYLQMNSLKPEDTAVYYCAKDGPGGGTRIYEYWGQGTLVTVSS | high polyreactivity
